Experimental data reported in patent publication US20220241369A1, “COMPOSITIONS AND METHODS OF MODULATING INFLAMMATION” (La Jolla Institute for Allergy and Immunology, priority 2018, published 2022).

System: OVA-induced food allergy (allergic diarrhea)
Assay: IgE-mediated experimental food allergy, i.g. pretreatment with HRF inhibitor before each OVA challenge
Assay type: in vivo, mouse
Procedure: FIGS. 1A-1I show GST-N19 inhibits the development of diarrhea and intestinal mastocytosis in murine food allergy. Mice were i.p. sensitized with OVA ([…]) plus alum on days 0 and 14. From day 28, mice were i.g. challenged with OVA (50 mg) three times a week. Sensitized mice were either non-pretreated (−) or i.g. pretreated with 100 μg of GST or GST-N19 (N19). (FIG. 1A) Procedure scheme. (FIG. 1B) The development of diarrhea was monitored for 90 min after each OVA challenge. (n=5 for non-sensitized group, n=3 for inhibitor non-pretreated group, n=4 for GST group, n=6 for N19 group, data are representative of at least 3 independent experiments) Log-rank test: p=0.028 (GST vs. GST-N19), p=0.036 (control vs. GST-N19). […] (FIG. 1C-FIG. 1E) Total IgE, IgG1, HRF, and HRF-reactive IgE and IgG in sera were measured by ELISA. (FIG. 1F) Serum mMCP-1 was also measured by ELISA. (FIG. 1G) Sections of jejunum were stained with chloroacetate esterase to identify mast cells. Sections indicated by rectangles are enlarged in lower rows. Bar=100 μm in large pictures and 50 μm in insets. (FIG. 1H) Flow cytometry was performed to enumerate MMC9s (Lin^−c-Kit^+ST2^+IL-17RB^−Integrin β7^lo) in jejunum. (n=14 for non-sensitized group, n=15 for inhibitor non-pretreated group, n=9 for GST group, n=9 for GST-N19 group, pooled data of 3 independent experiments) (FIG. 1I) Cytokine mRNAs in jejunum were quantified by qRT-PCR. *, **: p<0.05, p<0.01 by ANOVA with Tukey's multiple comparison.
Mice were i.p. sensitized with OVA (50 μg/mouse) plus alum on days 0 and 14. From day 28, mice were i.g. challenged with OVA (25 or 50 mg) or PBS (control) three times a week. Before each challenge, mice were starved for 3 h, then i.g. pretreated with GST, GST-N19 (100 μg/mouse), synthetic N19 peptide, or HRF-2CA. The development of diarrhea was monitored for 90 min after OVA challenge. Diarrhea severity (30) was based on states of stool: solid (score 0), funicular (score 1), slurry (score 2), and watery (score 3).
For histologic analysis, jejunal tissue was fixed in 10% formalin. Mast cells in jejunal sections were detected by chloroacetate esterase staining. IgE, IgG, IgG1, IgG2a, mMCP-1, HRF, HRF-reactive IgE, and HRF-reactive IgG 24 h after the last OVA challenge were measured by ELISA (see Supplemental Information). Cytokine mRNAs in jejunum were quantified by qRT-PCR.
Twenty-four hours after the last OVA challenge, mice were sacrificed and small intestines (0.5-15 cm from stomach) were collected. The intestinal tissues were opened longitudinally and washed with HBSS. The washed tissues were incubated with 5 mM EDTA-HBSS for 30 min at 4° C., transferred to 30 ml HBSS in 50 ml tubes, and vigorously shaken to remove intestinal epithelial cells. The tissues were then washed with 10 ml of 10% FCS RPMI medium. Tissues were cut into tiny pieces and incubated with 2.4 mg/ml Collagenase D and 0.2 mg/ml DNase for 30 min at 37° C. Then cells were washed, resuspended in 44% Percoll solution, and slowly loaded on the top of 67% Percoll solution. The cells were centrifuged (1800 rpm, 20 min) and lymphocyte fractions were collected and used for detection of MMC9s (Lin^−c-Kit^+ST2^+IL-17RB^−Integrin β7^lo).
The cells were first incubated with 2.4G2 for 15 min at 4° C. and further incubated with Abs (PE-anti-07 integrin mAb (clone FIB504), PerCP/Cy5.5-anti-CD4 mAb (clone RM4-5), PerCP/Cy5.5-anti-CD8 mAb (clone 53-6.7), PerCP/Cy5.5-anti-CD11b mAb (clone M1/70), PerCP/Cy5.5-anti-CD11c mAb (clone N418), PerCP/Cy5.5-anti-B220 mAb (RA3-6B2), PerCP/Cy5.5-anti-Ly-6G/Ly-6C mAb (clone RB6-8C5), PerCP/Cy5.5-anti-CD335 mAb (clone 29A1.4), AlexaFluor647-anti-IL-17RB (clone 9B10), APC/Cy7-anti-CD117 (clone 2B8), Biotin-anti-ST2 (clone DIH9)) (Biolegend) for 30 min at 4° C. After washed, the cells were incubated with SA-BV421 (Biolegend) for 30 min at 4° C. MMC9 population was identified using FACS Canto. Data were analyzed using FlowJo software.

B1: HRF-2CA-His6, a monomeric mutant of mouse HRF (protein)
chain: MIIYRDLISHDELFSDIYKIREIADGLALEVEGKMVSRTEGAIDDSLIGGNASAEGPEGEGTESTVVTGVDIVMNHHLQETSFTKEAYKKYIKDYMKSLKGKLEEQKPERVKPFMTGAAEQIKHILANFNNYQFFIGENMNPDGMVALLDYREDGVTPFMIFFKDGLEMEKAHHHHHH
OVA-sensitized mice after OVA challenges, i.g. pretreatment
  HRF-reactive IgE levels: did not affect
After eleven OVA challenges
  reduction of HRF-reactive IgG levels: not affected
i.g. pretreatment before each OVA challenge, chloroacetate esterase staining
  number of mucosal mast cells in jejunum (intestinal mastocytosis): inhibits
i.g. pretreatment, serum ELISA
  levels of total IgE, IgG1, IgG2a or HRF-reactive IgE and IgG: failed to affect
Sensitized mice pretreated i.g. with 100 μg before each OVA challenge
  diarrhea occurrence / incidence: inhibits
